Data from patent publication US20110059063A1 (Amgen, published 2011).
Where a chain is given by its changes, count along the chain named.

T1: cell surface expressed human PAR-2 (human, UniProt P55085 25-397)
T1 sequence: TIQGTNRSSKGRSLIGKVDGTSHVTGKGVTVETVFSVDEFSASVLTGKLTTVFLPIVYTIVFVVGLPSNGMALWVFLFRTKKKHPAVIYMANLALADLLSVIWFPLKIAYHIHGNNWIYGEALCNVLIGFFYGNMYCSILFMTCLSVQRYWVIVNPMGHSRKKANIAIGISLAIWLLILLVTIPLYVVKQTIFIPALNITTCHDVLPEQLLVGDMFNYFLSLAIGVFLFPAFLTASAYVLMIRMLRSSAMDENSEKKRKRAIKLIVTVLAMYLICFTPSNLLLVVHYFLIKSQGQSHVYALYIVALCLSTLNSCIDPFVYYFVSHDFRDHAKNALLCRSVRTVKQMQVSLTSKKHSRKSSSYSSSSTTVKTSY

B1: anti-PAR-2 antibody 9B12 (antibody, V domains shown)
VH: QVQLVESGGGVVQPGRSLRLSCAASGFTFSSYGMHWVRQAPGKGLEWVAVIWYDGSNKYYADSVKGRFTISRDNSKNTLYLQMNSLRAEDTAVYYCARDLGAAAGTGFDYWGQGTLVTVSS
VL: QSVLTQPPSVSAAPGQKVTISCSGSSSNIGNNYVSWYQQLPGTAPKLLIYDNNKRPSGIPDRFSGSKSGTSATLGITGLQTGDEADYYCGTWDSSLSAGVVFGGGTKLTVL
B2: anti-PAR-2 antibody 1A1 (antibody, V domains shown)
VH: EVQLVQSGAEVKKPGESLKISCKGSGYNFISHWIGWVRQMPGKGLEWMGMIYPGDSDTRYSPSFQGQVTISADKSINTAYLQWRSLKASDTAMYFCARHGGITGTTFYYDFGMDVWGQGTTVTVSS
VL: SYELTQPPSVSVSPGQTARITCSGDALPKQYASWYQQKPGQAPLLVIYRDSERPSGLPERFSGSSSGTTVTLTISGVQAEDEADYYCQSADSGGSYVFGTGTKVTVL
notes: Human antibody from a XenoMouse hybridoma; also called monoclonal antibody 1A1
B3: anti-PAR-2 antibody 1B5 (antibody, V domains shown)
VH: EVQLVQSGAEVKKSGESLKISCKGSGYSFSNYWIGWVRQMPGKGLEWMGIIYPGDSDTRYSPSFQGQVTISADKSIRTAYLQWSSLKASDTAMYYCARHKGITGTTFYYDYGMDVWGQGTTVTVSS
VL: B2 VL with D25E, L44V, S51T, L57I, G93N, S95A, K103R
notes: Human antibody from a XenoMouse hybridoma
B4: anti-PAR-2 antibody 1C7 (antibody, V domains shown)
VH: B3 VH with S14P, S30T, N31S
VL: B2 VL with D25E, L44V, R49K, L57I, G93N, S95A
notes: as for B3
B5: anti-PAR-2 antibody 2C6 (antibody, V domains shown)
VH: QVQLVQSGAEVKKPGASVKVSCKASGYTFTGYFFHWVRQAPGQGLEWVGWINPNSGATHFAQKFQGRVTMTRDTSISTAYMELSRLRSDDTAVYYCARDGSNWNRDYGMDVWGQGTTVTVSS
VL: QSVLTQPPSASGTPGQRVTISCSGSSSNIGINHVYWYQQLPGTAPKIFIYRNNQRPSGVPDRFSGSKSGTSASLAISGLRSEDEADYYCAVWDDSLSGVVFGGGTKLTVLG
B6: anti-PAR-2 antibody 12D5 (antibody, V domains shown)
VH: QVQLQQSGPGLVKPSQTLSLTCAISGDSVSSNRAAWNWIRQSPSRGLEWLGRTYYRSKWYNDFAVSVRSRITITPDTSKNQFSLQLNSVTPEDTAVYYCARDRNSGYYYYGLDVWGQGTTVTVSS
VL: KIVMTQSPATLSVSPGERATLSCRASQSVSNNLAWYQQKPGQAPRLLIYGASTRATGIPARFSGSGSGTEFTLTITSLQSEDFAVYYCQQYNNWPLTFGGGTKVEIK
B7: anti-PAR-2 antibody 13F2 (antibody, V domains shown)
VH: B6 VH with F63H, R68K, T94K
VL: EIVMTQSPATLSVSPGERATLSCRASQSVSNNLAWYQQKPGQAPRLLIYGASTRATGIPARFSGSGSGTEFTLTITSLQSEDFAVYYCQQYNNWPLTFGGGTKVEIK

Molecular target: PAR-2 (on the cells of the FLIPR Ca2+ mobilization assay)
Experiment: cell-based or functional assay

PAR-2 (on the cells of the FLIPR Ca2+ mobilization assay), sequence (P55085 whole entry): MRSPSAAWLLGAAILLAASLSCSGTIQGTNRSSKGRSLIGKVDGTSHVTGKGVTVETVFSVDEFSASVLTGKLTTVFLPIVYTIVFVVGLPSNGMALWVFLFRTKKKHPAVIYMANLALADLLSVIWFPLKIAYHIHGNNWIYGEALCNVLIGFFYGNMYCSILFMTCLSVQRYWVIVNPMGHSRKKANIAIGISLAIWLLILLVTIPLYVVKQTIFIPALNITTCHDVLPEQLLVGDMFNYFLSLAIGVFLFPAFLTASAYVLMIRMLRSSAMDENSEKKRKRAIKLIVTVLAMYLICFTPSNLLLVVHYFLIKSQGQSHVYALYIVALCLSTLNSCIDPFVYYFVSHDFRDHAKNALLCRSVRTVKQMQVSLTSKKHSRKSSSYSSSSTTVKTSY

IC50, FLIPR assay for Ca2+ mobilization [nM] | Binder
> 1000 | B1
2 | B2
3 | B3
3 | B4
> 1000 | B5
> 1000 | B6
> 1000 | B7

Molecular target: T1, cell surface expressed human PAR-2
Experiment: KinExA, cells expressing human PAR-2, averaged for N=5 experiments; antibody 1A1; N=5 experiments
Excerpt: This example describes the analysis of the binding properties of PAR-2 antigen-binding proteins to cell surface expressed PAR-2 utilizing a Kinetic Exclusion Assay which measures binding events in solution phase and can be used to calculate KD, Kₒₙ and Koff (KinExA®; Sapidyne Instruments, Boise, Id.), substantially as described previously by Xie et. al. J. Imm, Methods 304:1 (2005) and Rathanaswami et. al. Anal. Biochem. 373:52 (2008). Briefly, serial dilutions of cells expressing human PAR-2 (for example, CHO transfectants expressing human PAR-2 at the cell surface, obtainable by transfecting CHO cells with human full length PAR-2 cDNA encoding a polypeptide of SEQ ID NO:2) and control cells (i.e., non-transfected CHO cells) in a modified DMEM medium (phenol red free containing 10% heat inactivated FBS, 0.1 mM MEM non-essential amino acids, 1 mM sodium pyruvate, penicillin-streptomycin-glutamine, and 0.025% (w/w) sodium azide) are incubated with set amounts of antibody for 24 to 36 hours at 4 C with rotation. […] The free mAb is measured by KinExA® using the appropriate capture beads and Cy5-conjugated anti-human secondary antibodies, as described by Rathanaswami et al. Biochem Biophys Research Commun:1004 (2005). […]
The KD of certain PAR-2 antibodies was determined in this manner.

Kd [nM] | Binder
0.0628 | B2

Molecular target: T2, clipped N-terminal PAR-2/Fc polypeptide (human)
T2 construct: also called truncated amino-terminal PAR-2-Fc; cleaved PAR-2/Fc
Experiment: Western blot; by the footnote, an upstream binder binds only the full-length PAR-2/Fc
Excerpt: To analyze binding to uncleaved versus cleaved PAR-2, various amounts of purified uncleaved and clipped N-terminal PAR2-Fc are subjected to SDS-PAGE using 8-16% polyacrylamide gradient gels (Novex gels, Invitrogen Life Technologies) in a Tris-Glycine buffer system. Gel lanes containing See Blue standards (Novex, Invitrogen Life Technologies) for molecular weight identification are also included. Following electrophoresis, proteins are transferred from gels onto nitrocellulose membranes using a Novex XCell II Blot Module (Invitrogen Life Technologies). Membranes are blocked with 1:1, Odyssey blocking buffer, OBB, (LI-COR Biosciences):TBS (Tris Buffer Saline) overnight at 4 C with shaking. Antibodies to be analyzed are diluted in 1:1 OBB:TBS at a desired final concentration for 1 hr at room temperature. Membranes are washed extensively with 0.1% Tween 20 in TBS (3-4 changes of 100 ml over ˜1 hr). Membranes are then exposed to the appropriate secondary antibody-Alexa680 (Molecular Probes, Invitrogen Life Technologies) conjugate (goat anti-rabbit IgG, or goat anti-mouse IgG) diluted 1:5000 in 1:1 (OBB:TBS) for 1 hr at room temperature. Membranes are washed as described above, and if desired, analyzed using a LI-COR Odyssey Infrared Imaging System (LI-COR Biosciences).
Several PAR-2 antibodies were tested in different assay formats; Table 2 summarizes the results. IC₅₀ values were determined in a FLIPR assay for Ca2+ mobilization described previously; binding to the upstream region of the cleavage site versus the downstream region of the cleavage site was determined using the Western blot assay described previously.

binding result | Binder
no binding | B2
no binding | B3
no binding | B4
